Test results published in US20250346665A1 (BEIJING IMMUNOAH PHARMATECH, published 2025).
Like-named read-outs stand apart in the source and are kept apart here.

B1: murine anti-CLDN18.2 monoclonal antibody secreted by the hybridoma 7D10-1 (antibody, V domains shown)
VH: QVQLKESGGNLVQPGGSRKLSCAASGFSFSSFGMHWVRQAPEKGLEWVAYISSGSRTIYYADTVKGRFTISRDNAKNTLFLQMTSLRSEDTAMYYCTRYYYGNSFDYWGQGTTLTVSS
VL: DIVMTQAPSSLTVTTGEKVTLACKSSQSLFNTGNQKNYLTWYQQKPGQPPKLLIYWASTRESGVPDRFTGSGSGTAFTLTISSVQAEDLAVYYCQNNYNFPLTFGAGTKLELK
notes: Murine hybridoma antibody detected with PE anti-mouse IgG Fc; also called murine anti-CLDN18.2 antibody
B2: 7D10-1 chimeric antibody (antibody, human IgG1, kappa, L234A L235A, V domains shown)
VH: B1 VH
VL: DIVMTQAPSSLTVTTGEKVTLACKSSQSLFNTGNQKNYLTWYQQKPGQPPKLLIYWASTRESGVPDRFTGSGSGTAFTLTISSVQAEDLAVYYCQNNYNFPLTFGAGTKLELKR
notes: Murine variable regions with a human constant region; also called anti-CLDN18.2 chimeric antibody
B3: 7D10-1 humanized antibody (antibody, V domains shown)
VH: QVQLVESGGGLVKPGGSLRLSCAASGFSFSSFGMHWVRQAPGKGLEWVAYISSGSRTIYYADTVKGRFTISRDNAKNSLYLQMNSLRAEDTAVYYCTRYYYGNSFDYWGQGTTVTVSS
VL: DIQMTQSPSSLSASVGDRVTITCKSSQSLFNTGNQKNYLTWYQQKPGKAPKLLIYWASTRESGVPSRFSGSGSGTDFTLTISSLQPEDFATYYCQNNYNFPLTFGQGTRLEIK
notes: Cloned into the same pQKX1/pQKX2 vectors as the chimeric antibody and detected with PE anti-human IgG Fc; a human IgG1 isotype control was used in the ADCC assay; also called anti-CLDN18.2 humanized antibody

Key:
[1] = biological target: T1, Human CLDN18.2, NP_001002026.1, claudin-18 isoform 2 [Homo sapiens] (human); assay: flow cytometry on 293T-18.2 cells
T1 sequence (chain, as listed by the source limits assumed): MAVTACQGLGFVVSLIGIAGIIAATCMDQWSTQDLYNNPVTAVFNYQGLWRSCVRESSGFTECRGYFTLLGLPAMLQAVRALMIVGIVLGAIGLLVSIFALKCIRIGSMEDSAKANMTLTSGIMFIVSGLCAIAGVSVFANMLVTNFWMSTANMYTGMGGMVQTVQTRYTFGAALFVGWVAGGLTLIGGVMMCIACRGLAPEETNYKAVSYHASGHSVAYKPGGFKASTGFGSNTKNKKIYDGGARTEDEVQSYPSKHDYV

[2] = biological target: T1, Human CLDN18.2, NP_001002026.1, …; assay: flow cytometry titration on 293T-18.2 cells
Description: Each well was washed twice with 400 μl FACS buffer. The secondary antibody of PE anti-mouse IgG Fc was added, and incubated for 1 hour before detection by flow cytometry.

[3] = biological target: T1, Human CLDN18.2, NP_001002026.1, …; assay: flow cytometry titration on 293T-18.2 cells; remark: listed apart in the source
Description: (§1) 10 μL of each diluted antibody was added to 100 μL of the above cell samples, mixed and incubated at room temperature for 1 hour.
Each well was washed twice with 400 μl FACS buffer. The secondary antibody of the PE anti-human IgG Fc (Biolegend, Cat409304) was added and incubated for 1 hour before detection by flow cytometry.

[4] = biological target: T1, Human CLDN18.2, NP_001002026.1, …; assay: cell-based or functional assay
[5] = biological target: T1, Human CLDN18.2, NP_001002026.1, …; assay: flow cytometry titration on 293T-18.2 cells; remark: listed apart in the source
Description: as §1
Each well was washed twice with 400 μl FACS buffer. The secondary antibody of the PE anti-human IgG Fc was added and incubated for 1 hour before detection by flow cytometry.

Binder	EC50 strength as a multiple of control antibody MAb362 [1] [fold]	EC50 [2] [µg/mL]	EC50 [3] [µg/mL]	EC50 of ADCC [4] [nM]	EC50 [5] [µg/mL]
B1	~3	0.385	–	–	–
B2	~10	–	0.4	–	–
B3	~4	–	–	180	0.909
